In patent US20210347899A1 (BRIGHAM AND WOMEN S HOSPITAL, published 2021):

T1: full length cynomolgus KLRG1 (cynomolgus, UniProt A0A2K5WAP9 1-186)
T1 construct: whole, on cells; also called Cyno KLRG1; CHO-cynomolgus-KLRG1
T1 sequence: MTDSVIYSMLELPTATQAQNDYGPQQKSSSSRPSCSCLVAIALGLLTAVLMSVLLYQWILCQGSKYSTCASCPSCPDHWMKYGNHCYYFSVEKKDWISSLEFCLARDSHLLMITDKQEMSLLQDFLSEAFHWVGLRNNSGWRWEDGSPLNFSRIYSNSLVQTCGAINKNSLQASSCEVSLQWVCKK

T2: full length human KLRG1 (human, UniProt Q96E93 1-195)
T2 sequence (looked up): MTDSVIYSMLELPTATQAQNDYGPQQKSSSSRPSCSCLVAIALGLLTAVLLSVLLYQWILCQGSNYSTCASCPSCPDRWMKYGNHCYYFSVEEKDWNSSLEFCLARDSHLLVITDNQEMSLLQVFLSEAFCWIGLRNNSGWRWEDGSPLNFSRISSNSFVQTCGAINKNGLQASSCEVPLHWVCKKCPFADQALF

T3: cynomolgus KLRG1 ECD (cynomolgus, biotinylated in the OCTET assay, site not stated)
T3 construct: Recombinant proteins were made as FC fusion or as HIS tagged versions; also called cynonolgus KLRG1 ECD
T3 chain: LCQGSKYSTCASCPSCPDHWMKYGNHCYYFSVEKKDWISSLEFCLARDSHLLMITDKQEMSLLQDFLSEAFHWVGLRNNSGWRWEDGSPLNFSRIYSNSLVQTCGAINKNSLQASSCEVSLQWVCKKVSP


Experiments:
[1] = molecular target: T1, full length cynomolgus KLRG1; assay: FACS on CHO-cynomolgus-KLRG1 cells
Description: (§1) Binding of anti-KLRG1 monoclonal antibodies to cell expressed human and cynomolgus-KLRG1 was carried out by FACS. Chinese hamster ovary (CHO) cells were stably transfected to express full length human KLRG1 (CHO-human-KLRG1) and cynomolgus KLRG1 (CHO-cynomolgus-KLRG1).

[2] = molecular target: T2, full length human KLRG1; assay: cell-based or functional assay
[3] = molecular target: T2, full length human KLRG1; assay: cell-based or functional assay; remark: listed apart in the source
[4] = molecular target: T2, full length human KLRG1; assay: FACS competition, loss of HIS tagged E-cadherin binding to CHO-hKLRG1 cells
Description: (§2) The ability of monoclonal antibodies to inhibit E-cadherin/KLRG1 binding was measured by FACS. Binding of E-cadherin to CHO-hKLRG1 cells was first determined by incubating the KLRG1 expressing cells with varying concentration of HIS tagged recombinant E-cadherin and detected by FACS with anti-HIS detection antibody.

[5] = molecular target: T2, full length human KLRG1; assay: E-cadherin binding inhibition study, FACS on CHO-hKLRG1 cells; labels of Table 12 stand one row too low, value agrees with ABC_G1N05 in Table 8
Description: as §2
(§3) IC50 values for each antibody were derived from E-cadherin binding inhibition studies and plotted against IFNγ production levels measured in CD8+ T cells IFNγ release assays.

[6] = molecular target: T2, full length human KLRG1; assay: FACS on CHO-human-KLRG1 cells
Description: as §1

[7] = molecular target: T3, cynomolgus KLRG1 ECD; assay: hybridoma screen for binding to KLRG1 ECD
[8] = molecular target: T2, full length human KLRG1; assay: E-cadherin binding inhibition study, FACS on CHO-hKLRG1 cells; labels of Table 12 stand one row too low, value agrees with ABC_G1N08 in Table 8
Description: as §2, §3

[9] = molecular target: T2, full length human KLRG1; assay: E-cadherin binding inhibition study, FACS on CHO-hKLRG1 cells; labels of Table 12 stand one row too low, value agrees with ABC_G1N07 in Table 8
Description: as §2, §3

[10] = molecular target: T2, full length human KLRG1; assay: E-cadherin binding inhibition study, FACS on CHO-hKLRG1 cells; labels of Table 12 stand one row too low, value agrees with ABC_G1N02 (5.03) in Table 8
Description: as §2, §3

[11] = molecular target: T2, full length human KLRG1; assay: FACS, HIS tagged E-cadherin on CHO-hKLRG1 cells, anti-HIS detection
Description: as §2

Row | Binder | EC50 [1] [nM] | IFNγ [2] [pg/mL] | IFNγ released (pg/ml), Sample 1 [3] [pg/mL] | IFNγ released (pg/ml), Sample 2 [3] [pg/mL] | IC50 [4] [nM] | IC50 [5] [nM] | EC50 [6] [nM] | binding result [7] | IC50 [8] [nM] | IC50 [9] [nM] | IC50 [10] [nM] | EC50 [11] [nM]
1 | ABC_G1N08 (antibody, V domains shown, Mouse hybridoma monoclonal antibody) VH: QVQLQQSGAELAKPGASVKLSCKASGYTFTSYFLHWVKQRPGQGLEWIGYMNPSSGYTKCNQKFKDKATLTADKSSSTAYMQVSSLTYEDSAVYYCARDRIGYWDFDVWGTGTTVTVSS VL: DVVMTQSQKFMSTTVGDRVSITCKASQNVGTAVAWYQQKPGQSPKLLIYSASNRYTGVPDRFTGSGSGTDFTLTITNMQSEDLADYFCQQYSSYLTFGAGTKLDLK | 1.3 | 1040 | 1010 | 1060 | 10 | – | 4.8 | binds | 10 | – | – | –
2 | ABC_G1N07 (antibody, V domains shown, Mouse hybridoma monoclonal antibody) VH: EVQLVESGGGLVKPGGSLKLSCTASGFTFRNYAMSWVRQTPEKRLEWVATISESGNYNNYPDNVKGRLTISRDNAKNNLYLQMSLLKSEDTAMYYCVRDDWEGRAMDYWGQGTSVTVSS VL: GIQMTQSPSSLSASLGERVSLTCRASRDIGSSLNWLQQKPDGTIKRLIYATSSLDSGVPKRFSGSRSGTDYSLTISSLESEDFVDYFCLQYASSPWTFGGGTKLEIK | 0.98 | 1480 | 1580 | 1390 | 9.6 | – | 0.94 | binds | – | 9.6 | – | –
3 | HIS tagged recombinant E-cadherin (ligand, also called human E-cadherin; not shown: HIS tag) DWVIPPISCPENEKGPFPKNLVQIKSNKDKEGKVFYSITGQGADTPPVGVFIIERETGWLKVTEPLDRERIATYTLFSHAVSSNGNAVEDPMEILITVTDQNDNKPEFTQEVFKGSVMEGALPGTSVMEVTATDADDDVNTYNAAIAYTILSQDPELPDKNMFTINRNTGVISVVTTGLDRESFPTYTLVVQAADLQGEGLSTTATAVITVTDTNDNPPIFNPTTYKGQVPENEANVVITTLKVTDADAPNTPAWEAVYTILNDDGGQFVVTTNPVNNDGILKTAKGLDFEAKQQYILHVAVTNVVPFEVSLTTSTATVTVDVLDVNEAPIFVPPEKRVEVSEDFGVGQEITSYTAQEPDTFMEQKITYRIWRDTANWLEINPDTGAISTRAELDREDFEHVKNSTYTALIIATDNGSPVATGTGTLLLILSDVNDNAPIPEPRTIFFCERNPKPQVINIIDADLPPNTSPFTAELTHGASANWTIQYNDPTQESIILKPKMALEVGDYKINLKLMDNQNKDQVTTLEVSVCDCEGAAGVCRKAQPVEAGLQIPA | – | – | – | – | – | – | – | – | – | – | – | 1000

Results, then the binder that gave them:

Row | EC50 [1] [nM] | IFNγ [2] [pg/mL] | IFNγ released (pg/ml), Sample 1 [3] [pg/mL] | IFNγ released (pg/ml), Sample 2 [3] [pg/mL] | IC50 [4] [nM] | IC50 [5] [nM] | EC50 [6] [nM] | binding result [7] | IC50 [8] [nM] | IC50 [9] [nM] | IC50 [10] [nM] | EC50 [11] [nM] | Binder
4 | 0.5 | 1050 | 1010 | 1080 | 23 | 23 | 39.8 | binds | – | – | – | – | ABC_G1N05 (antibody, V domains shown, Mouse hybridoma monoclonal antibody) VH: EVLLMESGGDLVKPGGSLKLSCAASGFTFSSYDMSWVRQTPDKRLEWVATISSSGRYTFYPDNVKGRFTISRDNAKNTLYLQVSNLKSEDTAMYYCSRTGVTTVVFTDYFDYWGQGTTLTVSS VL: DIQMTQSPSSLSASLGERVSLTCRASQDIGNSLNWLQQGPDGTIKRLIYATSSLDSGVPKRFSGSRSGSTYSLTISSLESEDFVAYYCLQYLSSPPTFGGGTKLEIK
5 | 2.02 | 1370 | 1440 | 1290 | 5.03 | – | 1.01 | binds | – | – | 5 | – | ABC_G1N02 (antibody, V domains shown, Mouse hybridoma monoclonal antibody) VH: QVTLKESGPGILQPSQTLSLTCSVSGFSLSTFGMGVGWIRQPSGKGLEWLAHIWWDDDKWYELALKSRLTISKDSSKNQVFLKIANVDTADTATYFCARVIYYGSRSAYYSMDYWGPGTSVTVSS VL: DVLMTQTPLSLPVSLGAQASISCKSSQSIVHSNGHTYLEWYLQKPGQSPKILIYKVSNRFSGVPDRFSGSGSGTDFTLKISRVEAEDLGVYYCFQGSHVPVTFGAGTKLELK
